Legend:
Assay in all cases: SPR
[1] = biological target: T1, native human haptoglobin β subunit (human, UniProt P00738 162-406)
T1 sequence (looked up): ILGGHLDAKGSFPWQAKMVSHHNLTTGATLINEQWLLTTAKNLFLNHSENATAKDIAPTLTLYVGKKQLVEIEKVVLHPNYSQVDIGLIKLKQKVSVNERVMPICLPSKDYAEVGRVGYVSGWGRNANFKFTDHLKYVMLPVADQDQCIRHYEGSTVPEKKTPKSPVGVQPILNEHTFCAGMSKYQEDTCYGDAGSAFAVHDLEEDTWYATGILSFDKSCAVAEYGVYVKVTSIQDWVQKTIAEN

[2] = biological target: T2, recombinant human haptoglobin β subunit (human, UniProt P00738 162-406)
T2 sequence (looked up): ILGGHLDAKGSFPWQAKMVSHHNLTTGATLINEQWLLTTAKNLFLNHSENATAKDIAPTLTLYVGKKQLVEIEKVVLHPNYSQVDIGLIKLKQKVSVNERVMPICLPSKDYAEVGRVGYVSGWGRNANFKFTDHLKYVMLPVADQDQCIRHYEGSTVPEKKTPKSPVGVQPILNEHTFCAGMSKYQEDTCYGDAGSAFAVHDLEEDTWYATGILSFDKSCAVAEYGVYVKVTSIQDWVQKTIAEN

[3] = biological target: recombinant human CD163 protein (human, UniProt Q86VB7-1 42-1050)
Chain of recombinant human CD163 protein (Q86VB7 42-1050): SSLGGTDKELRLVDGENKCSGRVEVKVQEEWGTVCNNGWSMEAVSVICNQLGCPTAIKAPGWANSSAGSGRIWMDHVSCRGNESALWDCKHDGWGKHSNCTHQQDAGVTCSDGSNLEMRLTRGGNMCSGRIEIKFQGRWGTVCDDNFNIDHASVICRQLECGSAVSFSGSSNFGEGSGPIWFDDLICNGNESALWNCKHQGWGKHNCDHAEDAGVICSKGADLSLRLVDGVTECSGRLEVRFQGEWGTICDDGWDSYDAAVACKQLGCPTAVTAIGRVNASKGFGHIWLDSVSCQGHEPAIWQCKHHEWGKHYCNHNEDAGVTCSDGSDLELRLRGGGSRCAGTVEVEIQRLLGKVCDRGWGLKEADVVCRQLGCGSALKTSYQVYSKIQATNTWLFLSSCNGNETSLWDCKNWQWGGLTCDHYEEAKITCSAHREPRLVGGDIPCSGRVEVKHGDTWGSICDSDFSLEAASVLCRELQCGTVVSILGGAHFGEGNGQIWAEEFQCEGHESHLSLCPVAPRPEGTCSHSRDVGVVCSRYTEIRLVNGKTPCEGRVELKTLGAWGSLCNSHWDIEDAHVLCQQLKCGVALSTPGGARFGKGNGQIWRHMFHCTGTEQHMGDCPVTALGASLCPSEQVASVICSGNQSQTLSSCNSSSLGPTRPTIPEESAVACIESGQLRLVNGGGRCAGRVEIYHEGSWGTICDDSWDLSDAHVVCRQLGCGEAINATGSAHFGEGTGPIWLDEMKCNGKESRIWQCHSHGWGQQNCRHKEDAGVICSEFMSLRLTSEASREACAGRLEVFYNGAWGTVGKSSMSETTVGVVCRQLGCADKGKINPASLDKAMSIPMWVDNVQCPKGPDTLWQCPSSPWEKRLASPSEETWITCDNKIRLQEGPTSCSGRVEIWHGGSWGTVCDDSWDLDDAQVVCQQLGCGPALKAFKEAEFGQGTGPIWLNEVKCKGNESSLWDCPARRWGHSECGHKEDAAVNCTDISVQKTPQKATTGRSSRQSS

Kd [1]	Kd [2]	Kd [3]	Binder
30 nM	29 nM	–	recombinant disulfide HMGB1 (natural protein, UniProt P09429 1-215, looked up, disulfide redox form (cysteines not named)) MGKGDPKKPRGKMSSYAFFVQTCREEHKKKHPDASVNFSEFSKKCSERWKTMSAKEKGKFEDMAKADKARYEREMKTYIPPKGETKKKFKDPNAPKRPPSAFFLFCSEYRPKIKGEHPGLSIGDVAKKLGEMWNNTAADDKQPYEKKAAKLKEKYEKDIAAYRAKGKPDAAKKGVVKAEKSKKKKEEEEDEEDEEDEEEEEDEEDEDEEEDDDDE
–	–	70 nM	HMGB1-haptoglobin β complexes (1:1 molar ratio) (complex) chain 1: MGKGDPKKPRGKMSSYAFFVQTCREEHKKKHPDASVNFSEFSKKCSERWKTMSAKEKGKFEDMAKADKARYEREMKTYIPPKGETKKKFKDPNAPKRPPSAFFLFCSEYRPKIKGEHPGLSIGDVAKKLGEMWNNTAADDKQPYEKKAAKLKEKYEKDIAAYRAKGKPDAAKKGVVKAEKSKKKKEEEEDEEDEEDEEEEEDEEDEDEEEDDDDE chain 2: ILGGHLDAKGSFPWQAKMVSHHNLTTGATLINEQWLLTTAKNLFLNHSENATAKDIAPTLTLYVGKKQLVEIEKVVLHPNYSQVDIGLIKLKQKVSVNERVMPICLPSKDYAEVGRVGYVSGWGRNANFKFTDHLKYVMLPVADQDQCIRHYEGSTVPEKKTPKSPVGVQPILNEHTFCAGMSKYQEDTCYGDAGSAFAVHDLEEDTWYATGILSFDKSCAVAEYGVYVKVTSIQDWVQKTIAEN
